Patent publication US20220411491A1 (Hoffmann-La Roche, published 2022)

B1: 10B10-TCB (bispecific antibody, human IgG1, kappa, L234A L235A)
light 1: DIQLTQSPHSLSASLGETVSIECLASEGISNYLAWFHQKPGKSPQLLIYYASSLQDGVPSRFSGSGSGTQYSLKISNMQPEDEGVYYCQQGYKYPLTFGSGTKLEIKRTVAAPSVFIFPPSDRKLKSGTASVVCLLNNFYPREAKVQWKVDNALQSGNSQESVTEQDSKDSTYSLSSTLTLSKADYEKHKVYACEVTHQGLSSPVTKSFNRGEC
light 2: EVQLLESGGGLVQPGGSLRLSCAASGFTFSTYAMNWVRQAPGKGLEWVSRIRSKYNNYATYYADSVKGRFTISRDDSKNTLYLQMNSLRAEDTAVYYCVRHGNFGNSYVSWFAYWGQGTLVTVSSASVAAPSVFIFPPSDEQLKSGTASVVCLLNNFYPREAKVQWKVDNALQSGNSQESVTEQDSKDSTYSLSSTLTLSKADYEKHKVYACEVTHQGLSSPVTKSFNRGEC
heavy 1: EVQLVESGGGLVQPGRSMKLSCAASGFTFTNFYMAWVRQAPTKALEWVASINTGGGYTYYRDSVKGRFTVSRDNTRSTLYLQMDSLRSEETATYYCARHLTYYGRYYYFDYWGQGVMVTVSSASTKGPSVFPLAPSSKSTSGGTAALGCLVEDYFPEPVTVSWNSGALTSGVHTFPAVLQSSGLYSLSSVVTVPSSSLGTQTYICNVNHKPSNTKVDEKVEPKSCDKTHTCPPCPAPEAAGGPSVFLFPPKPKDTLMISRTPEVTCVVVDVSHEDPEVKFNWYVDGVEVHNAKTKPREEQYNSTYRVVSVLTVLHQDWLNGKEYKCKVSNKALGAPIEKTISKAKGQPREPQVCTLPPSRDELTKNQVSLSCAVKGFYPSDIAVEWESNGQPENNYKTTPPVLDSDGSFFLVSKLTVDKSRWQQGNVFSCSVMHEALHNHYTQKSLSLSPGK
heavy 2: not shown
B2: B72-TCB (bispecific antibody, human IgG1, kappa, L234A L235A)
heavy 1: not shown
light 1: EVQLVESGGGLVQPGGSLRLSCAASGFTFNTYAMNWVRQAPGKGLEWVARIRSKYNNYATYYAASVKGRFTISRDDSKNSLYLQMNSLKTEDTAVYYCARHGNFGNSYVSWFAYWGQGTLVTVSSASVAAPSVFIFPPSDEQLKSGTASVVCLLNNFYPREAKVQWKVDNALQSGNSQESVTEQDSKDSTYSLSSTLTLSKADYEKHKVYACEVTHQGLSSPVTKSFNRGEC
heavy 2: QVQLVQSGAEVKKPGASVKVSCKASGYSFTGYTMNWVRQAPGQGLEWMGLINPYNSDTNYAQKLQGRVTMTTDTSTSTAYMELRSLRSDDTAVYYCARVALRVALDYWGQGTLVTVSSASTKGPSVFPLAPSSKSTSGGTAALGCLVEDYFPEPVTVSWNSGALTSGVHTFPAVLQSSGLYSLSSVVTVPSSSLGTQTYICNVNHKPSNTKVDEKVEPKSCDKTHTCPPCPAPEAAGGPSVFLFPPKPKDTLMISRTPEVTCVVVDVSHEDPEVKFNWYVDGVEVHNAKTKPREEQYNSTYRVVSVLTVLHQDWLNGKEYKCKVSNKALGAPIEKTISKAKGQPREPQVCTLPPSRDELTKNQVSLSCAVKGFYPSDIAVEWESNGQPENNYKTTPPVLDSDGSFFLVSKLTVDKSRWQQGNVFSCSVMHEALHNHYTQKSLSLSPGK
light 2: DIQMTQSPSSLSASVGDRVTITCKASQNVATHVGWYQQKPGKAPKRLIYSASYRYSGVPSRFSGSGSGTEFTLTISNLQPEDFATYYCQQYNRYPYTFGQGTKLEIKRTVAAPSVFIFPPSDRKLKSGTASVVCLLNNFYPREAKVQWKVDNALQSGNSQESVTEQDSKDSTYSLSSTLTLSKADYEKHKVYACEVTHQGLSSPVTKSFNRGEC
B3: P1AE5733 (antibody, V domains shown)
VH: EVQLVESGGGLVQPGRSLKLSCAASGFSFSNYGMAWVRQAATKGLEWVASISTGGGNTYYRDSVKGRFIVSRDNAKNTQYLQMDSLRSEDTATYYCTRHDRGGLYWGQGVMVTVSS
VL: DIVMTQAPLSVSVTPGESASISCRSSKSLLHSNGITYVYWYFQKPGKSPQVLIYRMSNLASGVPDRFSGSGSETDFTLKISRVEAEDVGIYHCGQLLENPYTFGAGTELELK
B4: P1AE5707 (antibody, V domains shown)
VH: EVQLLESGGGLVQPGGSLRLSCAASGFTFSKYAMAWVRQAPGKGLEWVASISTGGVNTYYRDSVKARFTISRDNSKNTLYLQMNSLRAEDTAVYYCATHTGDYFDYWGQGTMVTVSS
VL: DIVMTQSPDSLAVSLGERATINCRASQSVSISGINLMNWYQQKPGQQPKLLIYHASILASGVPDRFSGSGSGTDFTLTISSLQAEDVAVYYCQQTRESPLTFGQGTRLEIK
B5: P1AE5709 (antibody, V domains shown)
VH: EVQLLESGGGLVQPGGSLRLSCAASGFTFSKYAMAWVRQAPGKGLEWVASISTGGVNTYYRDSVKARFTISRDNSKNTLYLQMNSLRAEDTAVYYCATHTGDYFDYWGQGTMVTVSS
VL: EIVLTQSPGTLSLSPGERATLSCRASQSVSISGINLMNWYQQKPGQQPRLLIYHASILASGIPDRFSGSGSGTDFTLTISRLEPEDFAVYYCQQTRESPLTFGQGTRLEIK
B6: P1AE5714 (antibody, V domains shown)
VH: ELQLLESGGGLVQPGGSLRLSCAASGFTFSKYAMAWVRQAPGKGLEWVASISTGGVNTYYRDSVKARFTISRDNAKNTLYLQMNSLRAEDTAVYYCATHTGDYFDYWGQGTMVTVSS
VL: DIVMTQSPDSLAVSLGERATINCRASQSVSISGINLMNWYQQKPGQQPKLLIYHASILASGVPDRFSGSGSGTDFTLTISSLQAEDVAVYYCQQTRESPLTFGQGTRLEIK
B7: P1AE5708 (antibody, V domains shown)
VH: EVQLLESGGGLVQPGGSLRLSCAASGFTFSKYAMAWVRQAPGKGLEWVASISTGGVNTYYRDSVKARFTISRDNSKNTLYLQMNSLRAEDTAVYYCATHTGDYFDYWGQGTMVTVSS
VL: DIVMTQSPDSLAVSLGERATINCKSSQSVSISGINLMNWYQQKPGQQPKLLIYHASILASGVPDRFSGSGSGTDFTLTISSLQAEDVAVYYCQQTRESPLTFGQGTRLEIK
B8: P1AE5720 (antibody, V domains shown)
VH: EVQLLESGGGLVQPGGSLRLSCAASGFTFSKYAMAWVRQAPGKGLEWVASISTGGVNTYYADSVKGRFTISRDNSKNTLYLQMNSLRAEDTAVYYCATHTGDYFDYWGQGTMVTVSS
VL: DIVMTQSPDSLAVSLGERATINCRASQSVSISGINLMNWYQQKPGQQPKLLIYHASILASGVPDRFSGSGSGTDFTLTISSLQAEDVAVYYCQQTRESPLTFGQGTRLEIK
B9: P1AE5710 (antibody, V domains shown)
VH: EVQLLESGGGLVQPGGSLRLSCAASGFTFSKYAMAWVRQAPGKGLEWVASISTGGVNTYYRDSVKARFTISRDNSKNTLYLQMNSLRAEDTAVYYCATHTGDYFDYWGQGTMVTVSS
VL: EIVLTQSPGTLSLSPGERATLSCRASQSVSISGINLMNWYQQKPGQQPKLLIYHASILASGIPDRFSGSGSGTDFTLTISRLEPEDFAVYYCQQTRESPLTFGQGTRLEIK
B10: P1AE5713 (antibody, V domains shown)
VH: EVQLLESGGGLVQPGGSLRLSCAASGFTFSKYAMAWVRQAPGKGLEWVASISTGGVNTYYRDSVKARFTISRDNSKNTLYLQMNSLRAEDTAVYYCATHTGDYFDYWGQGTMVTVSS
VL: DIQMTQSPSSLSASVGDRVTITCRASQSVSISGINLMNWYQQKPGQQPKLLIYHASILASGVPSRFSGSGSGTDFTLTISSLQPEDFATYYCQQTRESPLTFGQGTRLEIK
B11: P1AE5721 (antibody, V domains shown)
VH: EVQLLESGGGLVQPGGSLRLSCAASGFTFSKYAMAWVRQAPGKGLEWVASISTGGVNTYYADSVKGRFTISRDNSKNTLYLQMNSLRAEDTAVYYCATHTGDYFDYWGQGTMVTVSS
VL: DIVMTQSPDSLAVSLGERATINCKSSQSVSISGINLMNWYQQKPGQQPKLLIYHASILASGVPDRFSGSGSGTDFTLTISSLQAEDVAVYYCQQTRESPLTFGQGTRLEIK
B12: P1AE5715 (antibody, V domains shown)
VH: ELQLLESGGGLVQPGGSLRLSCAASGFTFSKYAMAWVRQAPGKGLEWVASISTGGVNTYYRDSVKARFTISRDNAKNTLYLQMNSLRAEDTAVYYCATHTGDYFDYWGQGTMVTVSS
VL: DIVMTQSPDSLAVSLGERATINCKSSQSVSISGINLMNWYQQKPGQQPKLLIYHASILASGVPDRFSGSGSGTDFTLTISSLQAEDVAVYYCQQTRESPLTFGQGTRLEIK
B13: P1AE5727 (antibody, V domains shown)
VH: ELQLLESGGGLVQPGGSLRLSCAASGFTFSKYAMAWVRQAPGKGLEWVASISTGGVNTYYADSVKGRFTISRDNAKNTLYLQMNSLRAEDTAVYYCATHTGDYFDYWGQGTMVTVSS
VL: DIVMTQSPDSLAVSLGERATINCKSSQSVSISGINLMNWYQQKPGQQPKLLIYHASILASGVPDRFSGSGSGTDFTLTISSLQAEDVAVYYCQQTRESPLTFGQGTRLEIK
B14: P1AE5726 (antibody, V domains shown)
VH: ELQLLESGGGLVQPGGSLRLSCAASGFTFSKYAMAWVRQAPGKGLEWVASISTGGVNTYYADSVKGRFTISRDNAKNTLYLQMNSLRAEDTAVYYCATHTGDYFDYWGQGTMVTVSS
VL: DIVMTQSPDSLAVSLGERATINCRASQSVSISGINLMNWYQQKPGQQPKLLIYHASILASGVPDRFSGSGSGTDFTLTISSLQAEDVAVYYCQQTRESPLTFGQGTRLEIK
B15: P1AE5706 (antibody, V domains shown)
VH: ELQLEQSGGGLVQPGGSLTLSCAASGFTFSKYAMAWVRQAPTKGLEWVASISTGGVNTYYRDSVKARFTISRDNAKNTQYLQMDSLRSEDTATYYCATHTGDYFDYWGQGVMVTVSS
VL: DIVLTQSPALAVSPGQRATISCRASQSVSISGINLMNWYQQKPGQQPKLLIYHASILASGIPTRFSGSGSGTDFTLTIDPVQADDIATYYCQQTRESPLTFGSGTNLEIK

Each binder was assayed against T1, human GPRC5D (human, UniProt Q9NZD1 1-345) (assay: cell-based or functional assay).
T1 sequence (Q9NZD1 whole entry): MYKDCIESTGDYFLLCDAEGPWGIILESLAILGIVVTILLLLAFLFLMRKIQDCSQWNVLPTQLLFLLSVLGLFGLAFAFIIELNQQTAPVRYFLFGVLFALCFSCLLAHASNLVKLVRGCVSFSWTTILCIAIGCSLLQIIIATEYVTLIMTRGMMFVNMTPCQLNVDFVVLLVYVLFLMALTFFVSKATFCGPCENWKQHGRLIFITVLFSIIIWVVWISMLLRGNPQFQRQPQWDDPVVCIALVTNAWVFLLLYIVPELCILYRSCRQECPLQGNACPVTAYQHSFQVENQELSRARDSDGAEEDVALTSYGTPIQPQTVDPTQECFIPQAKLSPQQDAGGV

B1 and B2 are within 1.5-fold of each other in “EC50 of in vitro killing, AMO-1” value: 0.084 nM for the first, 0.109 nM for the second.

B1 and B2 are within 1.5-fold of each other in “EC50 of in vitro killing, EJM” value: 0.079 nM for the first, 0.06 nM for the second.

Compared with B1, B2 is 1.7-fold higher in “EC50 of in vitro killing, L363” value: 0.034 nM for the first, 0.058 nM for the second.

B1 and B2 are within 1.5-fold of each other in “EC50 of in vitro killing, MOLP-2” value: 0.16 nM for the first, 0.124 nM for the second.

B1 and B2 are within 1.5-fold of each other in “EC50 of in vitro killing, NCI-H929” value: 0.056 nM for the first, 0.058 nM for the second.

Compared with B1, B2 is 6.1-fold higher in “EC50 of in vitro killing, OPM-2” value: 0.028 nM for the first, 0.171 nM for the second.

Compared with B1, B2 is 5-fold lower in “EC50 of in vitro killing, RPMI” value: 0.965 nM for the first, 0.193 nM for the second.

Biological target: T1, human GPRC5D
Experiment: cell-based or functional assay
Remark: another data set of the same source

With B3 the “CAR-J2 EC50” value was 2.65 ng/mL.

Biological target: T1, human GPRC5D
Experiment: cell-based or functional assay
Remark: another data set of the same source

B4 and B5 are within 1.5-fold of each other in “CAR-J2 EC50” value: 42.4 ng/mL for the first, 59.4 ng/mL for the second.

Going from B6 to B7, the “CAR-J2 EC50” value rises from 5.5 ng/mL to 456 ng/mL (83-fold).

Going from B8 to B9, the “CAR-J2 EC50” value falls from 6.3 ng/mL to 3.5 ng/mL (1.8-fold).

Going from B10 to B11, the “CAR-J2 EC50” value falls from 76.9 ng/mL to 25 ng/mL (3.1-fold).

First: B12
Second: B13
The “CAR-J2 EC50” value of the first is 1.8-fold lower: 3.6 ng/mL for the first, 6.3 ng/mL for the second.

Going from B14 to B15, the “CAR-J2 EC50” value falls from 37.8 ng/mL to 3.9 ng/mL (9.7-fold).
